Salmonella invasion into WT Hap1 cells treated with the inhibitor peptide PAK18 (PAK residues 187–203; 5 μM), percent impeded; negative control peptide had no effect data for one substance are collected here from publication PMC8432889.

The target of the assay is β-PIX (endogenous, Hap1 cells) (human (endogenous in Hap1)) (UniProt Q14155).
Chain of UniProt Q14155 (Q14155 whole entry): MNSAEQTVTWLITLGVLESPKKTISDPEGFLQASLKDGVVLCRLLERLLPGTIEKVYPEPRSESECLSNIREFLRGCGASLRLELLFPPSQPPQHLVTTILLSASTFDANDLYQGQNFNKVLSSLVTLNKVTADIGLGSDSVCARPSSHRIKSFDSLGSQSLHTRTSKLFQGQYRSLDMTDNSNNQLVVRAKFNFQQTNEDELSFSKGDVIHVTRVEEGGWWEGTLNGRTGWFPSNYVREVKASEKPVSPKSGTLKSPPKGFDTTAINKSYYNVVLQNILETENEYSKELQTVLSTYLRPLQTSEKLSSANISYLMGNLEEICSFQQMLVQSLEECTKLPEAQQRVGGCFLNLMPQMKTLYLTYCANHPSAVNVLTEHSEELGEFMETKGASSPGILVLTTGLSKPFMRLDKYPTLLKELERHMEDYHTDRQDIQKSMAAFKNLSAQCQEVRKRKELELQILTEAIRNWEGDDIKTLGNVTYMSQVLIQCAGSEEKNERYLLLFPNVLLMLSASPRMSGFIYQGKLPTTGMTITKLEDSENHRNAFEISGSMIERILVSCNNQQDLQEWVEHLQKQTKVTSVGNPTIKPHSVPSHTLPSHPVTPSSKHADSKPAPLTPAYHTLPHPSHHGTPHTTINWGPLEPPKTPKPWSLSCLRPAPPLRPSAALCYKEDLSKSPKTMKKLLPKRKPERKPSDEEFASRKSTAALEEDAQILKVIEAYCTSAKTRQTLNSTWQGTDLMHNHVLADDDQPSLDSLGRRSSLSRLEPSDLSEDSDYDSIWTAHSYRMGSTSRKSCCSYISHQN

“Emerald-tagged PAK1, full length (from UniProt Q13153 1-545) (enzyme)” registered a Salmonella invasion into WT Hap1 cells treated with the inhibitor peptide PAK18 (PAK residues 187–203; 5 μM), percent impeded; negative control peptide had no effect of 55%.
